Experimental data taken from IntAct's records for PubMed 31515488.

B1: THAP domain-containing protein 7 (Homo sapiens), Q9BT49 (parent)
chain: MPRHCSAAGCCTRDTRETRNRGISFHRLPKKDNPRRGLWLANCQRLDPSGQGLWDPASEYIYFCSKHFEEDCFELVGISGYHRLKEGAVPTIFESFSKLRRTTKTKGHSYPPGPAEVSRLRRCRKRCSEGRGPTTPFSPPPPADVTCFPVEEASAPATLPASPAGRLEPGLSSPFSDLLGPLGAQADEAGCSAQPSPERQPSPLEPRPVSPSAYMLRLPPPAGAYIQNEHSYQVGSALLWKRRAEAALDALDKAQRQLQACKRREQRLRLRLTKLQQERAREKRAQADARQTLKEHVQDFAMQLSSSMA
partner: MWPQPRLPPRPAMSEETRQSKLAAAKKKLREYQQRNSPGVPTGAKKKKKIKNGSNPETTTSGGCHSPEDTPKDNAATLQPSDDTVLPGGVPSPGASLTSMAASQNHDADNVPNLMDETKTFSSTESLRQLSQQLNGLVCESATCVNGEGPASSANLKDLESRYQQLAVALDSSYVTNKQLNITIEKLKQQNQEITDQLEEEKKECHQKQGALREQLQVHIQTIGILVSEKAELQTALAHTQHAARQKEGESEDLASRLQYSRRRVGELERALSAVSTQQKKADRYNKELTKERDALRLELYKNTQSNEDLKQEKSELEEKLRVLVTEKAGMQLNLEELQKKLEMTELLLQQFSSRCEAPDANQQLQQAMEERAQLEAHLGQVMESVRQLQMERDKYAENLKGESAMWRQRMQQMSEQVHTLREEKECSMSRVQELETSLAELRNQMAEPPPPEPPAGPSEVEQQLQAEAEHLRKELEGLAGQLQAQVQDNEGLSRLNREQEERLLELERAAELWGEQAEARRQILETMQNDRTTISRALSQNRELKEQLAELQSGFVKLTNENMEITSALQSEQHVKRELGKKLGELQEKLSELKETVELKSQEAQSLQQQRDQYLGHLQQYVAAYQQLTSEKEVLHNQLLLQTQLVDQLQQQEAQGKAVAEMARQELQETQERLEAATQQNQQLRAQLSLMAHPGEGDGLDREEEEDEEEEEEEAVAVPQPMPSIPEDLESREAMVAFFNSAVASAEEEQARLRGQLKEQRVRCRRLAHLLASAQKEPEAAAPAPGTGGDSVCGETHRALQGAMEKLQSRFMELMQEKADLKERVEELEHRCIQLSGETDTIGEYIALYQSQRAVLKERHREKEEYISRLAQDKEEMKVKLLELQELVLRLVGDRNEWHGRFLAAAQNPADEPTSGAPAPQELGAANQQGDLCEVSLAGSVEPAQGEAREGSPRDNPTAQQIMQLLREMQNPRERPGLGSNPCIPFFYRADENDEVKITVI
B2: IQ motif and ubiquitin-like domain-containing protein (Homo sapiens), Q8NA54 (parent)
chain: MSNQQEKYEAQNIVNSTEESDDAFDTVTIPVPSEEPQESDQTEEHESGIEQFSESHAIHVEEQSDQSFSSLEPDNEQLMEEVISPRQVSYTPQHHEKQYAMQRPNDDSLAFLDKIKSVKESLQESVEDSLATVKVVLIPVGQEIVIPFKVDTILKYLKDHFSHLLGIPHSVLQIRYSGKILKNNETLVQHGVKPQEIVQVEIFSTNPDLYPVRRIDGLTDVSQIITVTVQTGLDQYQQVPVEIVKSDFHKPFLGGFRHKVTGVEYHNAGTQTVPKRIPERLSIFCRDTQTVFQKKNLQQTTNTTSTQMTNIGVYVSNMTDKLVTPGKYFSAAEYHAQRLKAVIVIQTYYRQWHAKIFVENLRRQKSLRLEWETQQELRKIREKEEWIKLDYHRRHNPKTNEDFEFLYNALEFWRQEELTRINQSFTGAERKAALCELLEKETQIIASIGRHRYIAYMANQEAAIQAFLDKCSAPKIWRTPNGKTIEMDTQFTIRARELQNIYKCIMLKNISQDERLDVLLTLKHTVKEHECKLTQEILELIDREVDLMMRGVKHHNLEGLRKRIATLFFHYIKTPLFNPEVAKYLKVPQDPLKFYKKIYFCHSCQLYLPSTEFSVSSTSRRIYRCRNCINLQNEAQKRESFLKYKCLLQQLYYTEADYEDDSKIAFLMQLQDIQYLTENIWASQSVLSACDNLSDLVMVRWNKSLEWSPWNCILLTKDEAAAHLKLTSIEEGYERSFIHKIKHKHILAKNYFSQVPVLASFILDDGEIDEIRWKYHSDTTPKIIESQRPPH
partner: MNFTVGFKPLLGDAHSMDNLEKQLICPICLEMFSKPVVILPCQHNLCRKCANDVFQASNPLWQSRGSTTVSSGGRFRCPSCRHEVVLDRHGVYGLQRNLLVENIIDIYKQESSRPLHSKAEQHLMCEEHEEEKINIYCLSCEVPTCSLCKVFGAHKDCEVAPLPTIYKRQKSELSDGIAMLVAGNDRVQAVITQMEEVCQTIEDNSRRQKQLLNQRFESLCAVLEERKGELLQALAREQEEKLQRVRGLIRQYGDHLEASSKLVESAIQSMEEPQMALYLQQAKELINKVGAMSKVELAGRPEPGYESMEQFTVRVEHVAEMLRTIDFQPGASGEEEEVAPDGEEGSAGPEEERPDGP
B3: Beta-taxilin (Homo sapiens), Q8N3L3 (parent)
chain: MEANHSEQLSAERQSTPPGDSSSLPSHNGLEKEDGQDSPTPVQPPEKEASVHPDISEELNRQLEDIINTYGSAASTAGKEGSARASEQPENAESPDNEDGDCEETTEEAGREPVASGEPPTVKEPVSNKEQKLEKKILKGLGKEANLLMQNLNKLQTPEEKFDFLFKKYAELLDEHRTEQKKLKLLQKKQVQIQKEKDQLQGEHSRAILARSKLESLCRELQRHNKTLKEEALQRAREEEEKRKEITSHFQSTLTDIQGQIEQQSERNMKLCQENTELAEKLKSIIDQYELREEHLDKIFKHRELQQKLVDAKLEQAQEMMKEAEERHKREKEYLLNQAAEWKLQAKVLKEQETVLQAQLTLYSGRFEEFQSTLTKSNEVFATFKQEMDKTTKKMKKLEKDTATWKARFENCNKALLDMIEEKALRAKEYECFVMKIGRLENLCRALQEERNELHKKIRDAEISEKDDQSQHNSDEEPESNVSVDQEIDAEEVNSVQTAVKNLATAFMIIHHPESTPHQSKETQPEIGSSQESADAALKEPEQPPLIPSRDSESPLPPLTPQAEAEGGSDAEPPSKASNSPAGLGAETQCEGLPVGAQADQASWKPEAEASGQAPQAPTEASLQKMEADVPAPACAAEEHVAAMVPACEPSRQPPRAAAEELPVGASAGPQPRNVADTNLEGVD
B4: Aflatoxin B1 aldehyde reductase member 2 (Homo sapiens), O43488 (parent)
chain: MLSAASRVVSRAAVHCALRSPPPEARALAMSRPPPPRVASVLGTMEMGRRMDAPASAAAVRAFLERGHTELDTAFMYSDGQSETILGGLGLGLGGGDCRVKIATKANPWDGKSLKPDSVRSQLETSLKRLQCPQVDLFYLHAPDHGTPVEETLHACQRLHQEGKFVELGLSNYASWEVAEICTLCKSNGWILPTVYQGMYNATTRQVETELFPCLRHFGLRFYAYNPLAGGLLTGKYKYEDKDGKQPVGRFFGNSWAETYRNRFWKEHHFEAIALVEKALQAAYGASAPSVTSAALRWMYHHSQLQGAHGDAVILGMSSLEQLEQNLAATEEGPLEPAVVDAFNQAWHLVAHECPNYFR
B5: Actin filament-associated protein 1-like 1 (Homo sapiens), Q8TED9 (parent)
chain: MDRGQVLEQLLPELTGLLSLLDHEYLSDTTLEKKMAVASILQSLQPLPAKEVSYLYVNTADLHSGPSFVESLFEEFDCDLSDLRDMPEDDGEPSKGASPELAKSPRLRNAADLPPPLPNKPPPEDYYEEALPLGPGKSPEYISSHNGCSPSHSIVDGYYEDADSSYPATRVNGELKSSYNDSDAMSSSYESYDEEEEEGKSPQPRHQWPSEEASMHLVRECRICAFLLRKKRFGQWAKQLTVIREDQLLCYKSSKDRQPHLRLALDTCSIIYVPKDSRHKRHELRFTQGATEVLVLALQSREQAEEWLKVIREVSKPVGGAEGVEVPRSPVLLCKLDLDKRLSQEKQTSDSDSVGVGDNCSTLGRRETCDHGKGKKSSLAELKGSMSRAAGRKITRIIGFSKKKTLADDLQTSSTEEEVPCCGYLNVLVNQGWKERWCRLKCNTLYFHKDHMDLRTHVNAIALQGCEVAPGFGPRHPFAFRILRNRQEVAILEASCSEDMGRWLGLLLVEMGSRVTPEALHYDYVDVETLTSIVSAGRNSFLYARSCQNQWPEPRVYDDVPYEKMQDEEPERPTGAQVKRHASSCSEKSHRVDPQVKVKRHASSANQYKYGKNRAEEDARRYLVEKEKLEKEKETIRTELIALRQEKRELKEAIRSSPGAKLKALEEAVATLEAQCRAKEERRIDLELKLVAVKERLQQSLAGGPALGLSVSSKPKSGETANKPQNSVPEQPLPVNCVSELRKRSPSIVASNQGRVLQKAKEWEMKKT
partner: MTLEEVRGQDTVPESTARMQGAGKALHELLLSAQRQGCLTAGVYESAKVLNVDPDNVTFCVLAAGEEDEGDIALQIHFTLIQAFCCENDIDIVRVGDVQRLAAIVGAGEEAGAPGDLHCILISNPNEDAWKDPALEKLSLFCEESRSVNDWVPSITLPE

Variants of: B1
Conditions: with goga2_human GOLGA2, Q08379

Variant | effect of a mutation on the interaction
E168D | with no effect

Variants of: B2
Conditions: with tri54_human TRIM54, Q9BYV2

Variant | effect of a mutation on the interaction
I501F | disrupting interaction strength
V126M | with no effect

Variants of: B3
Conditions: with cep70_human CEP70, Q8NHQ1
Target sequence in this assay (Q8NHQ1 whole entry): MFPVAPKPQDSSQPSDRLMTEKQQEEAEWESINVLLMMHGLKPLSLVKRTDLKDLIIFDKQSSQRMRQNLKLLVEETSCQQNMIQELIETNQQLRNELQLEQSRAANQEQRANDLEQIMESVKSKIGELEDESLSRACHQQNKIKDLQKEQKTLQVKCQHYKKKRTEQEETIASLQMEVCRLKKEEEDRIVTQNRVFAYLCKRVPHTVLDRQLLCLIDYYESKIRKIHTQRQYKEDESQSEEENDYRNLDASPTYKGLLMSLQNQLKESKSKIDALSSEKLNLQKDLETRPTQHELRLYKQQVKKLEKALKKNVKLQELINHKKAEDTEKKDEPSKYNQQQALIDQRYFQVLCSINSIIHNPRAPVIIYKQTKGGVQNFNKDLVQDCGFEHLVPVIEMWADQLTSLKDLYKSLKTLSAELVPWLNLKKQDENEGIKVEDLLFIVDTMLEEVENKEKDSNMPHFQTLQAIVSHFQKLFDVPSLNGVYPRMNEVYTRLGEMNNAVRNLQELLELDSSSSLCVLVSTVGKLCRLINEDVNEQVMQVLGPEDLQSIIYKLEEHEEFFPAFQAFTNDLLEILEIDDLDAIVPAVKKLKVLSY

Variant | effect of a mutation on the interaction
T361A | with no effect
T523I | with no effect

Variants of: B3
Conditions: with exoc5_human EXOC5, O00471
exoc5_human EXOC5, O00471, sequence (O00471 whole entry): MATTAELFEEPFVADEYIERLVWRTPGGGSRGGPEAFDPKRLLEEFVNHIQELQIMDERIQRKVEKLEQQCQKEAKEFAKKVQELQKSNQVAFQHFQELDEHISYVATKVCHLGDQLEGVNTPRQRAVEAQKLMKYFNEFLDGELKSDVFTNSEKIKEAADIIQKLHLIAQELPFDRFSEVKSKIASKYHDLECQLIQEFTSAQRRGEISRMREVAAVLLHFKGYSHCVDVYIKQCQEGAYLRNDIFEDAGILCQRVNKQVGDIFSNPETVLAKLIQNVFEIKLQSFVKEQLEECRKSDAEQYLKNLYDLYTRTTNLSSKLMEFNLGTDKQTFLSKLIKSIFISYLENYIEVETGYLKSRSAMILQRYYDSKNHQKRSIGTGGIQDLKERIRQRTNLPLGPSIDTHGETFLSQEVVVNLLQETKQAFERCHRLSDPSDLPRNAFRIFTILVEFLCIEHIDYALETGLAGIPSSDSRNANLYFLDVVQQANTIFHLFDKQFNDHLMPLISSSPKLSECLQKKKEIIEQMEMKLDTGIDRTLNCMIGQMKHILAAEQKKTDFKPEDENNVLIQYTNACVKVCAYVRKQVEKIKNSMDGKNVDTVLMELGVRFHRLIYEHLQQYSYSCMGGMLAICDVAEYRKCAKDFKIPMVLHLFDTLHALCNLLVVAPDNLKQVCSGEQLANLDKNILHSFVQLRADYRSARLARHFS

Variant | effect of a mutation on the interaction
I527T | with no effect

Variants of: B3
Conditions: with mbip1_human MBIP

Variant | effect of a mutation on the interaction
I527T | with no effect

Variants of: B4
Conditions: with ark73_human AKR7A3, O95154
ark73_human AKR7A3, O95154, sequence (O95154 whole entry): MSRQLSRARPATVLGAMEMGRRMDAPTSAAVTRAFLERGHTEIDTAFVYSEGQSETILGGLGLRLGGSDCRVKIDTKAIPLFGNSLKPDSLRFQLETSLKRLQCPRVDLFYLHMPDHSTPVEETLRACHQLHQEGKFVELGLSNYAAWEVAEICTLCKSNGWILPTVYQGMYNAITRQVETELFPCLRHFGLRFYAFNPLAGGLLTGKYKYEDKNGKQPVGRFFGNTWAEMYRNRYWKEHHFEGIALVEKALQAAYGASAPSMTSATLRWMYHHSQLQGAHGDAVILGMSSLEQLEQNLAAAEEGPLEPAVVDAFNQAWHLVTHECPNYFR

Variant | effect of a mutation on the interaction
A142T | disrupting interaction strength

Variants of: B4
Conditions: with cep70_human CEP70, Q8NHQ1
Target sequence in this assay (Q8NHQ1 whole entry): as the sequence (Q8NHQ1 whole entry) above

Variant | effect of a mutation on the interaction
A142T | disrupting interaction strength

Variants of: B5
Conditions: with ga45g_human GADD45G

Variant | effect of a mutation on the interaction
L406P | with no effect
S98N | with no effect
